{"source": "paper doi:10.1101/2023.05.24.542197", "molecular_target": "Dicer (endogenous human Dicer) (human (endogenous in HeLa and HEK 293T)) (UniProt Q9UPY3)", "sequence (Q9UPY3 whole entry)": "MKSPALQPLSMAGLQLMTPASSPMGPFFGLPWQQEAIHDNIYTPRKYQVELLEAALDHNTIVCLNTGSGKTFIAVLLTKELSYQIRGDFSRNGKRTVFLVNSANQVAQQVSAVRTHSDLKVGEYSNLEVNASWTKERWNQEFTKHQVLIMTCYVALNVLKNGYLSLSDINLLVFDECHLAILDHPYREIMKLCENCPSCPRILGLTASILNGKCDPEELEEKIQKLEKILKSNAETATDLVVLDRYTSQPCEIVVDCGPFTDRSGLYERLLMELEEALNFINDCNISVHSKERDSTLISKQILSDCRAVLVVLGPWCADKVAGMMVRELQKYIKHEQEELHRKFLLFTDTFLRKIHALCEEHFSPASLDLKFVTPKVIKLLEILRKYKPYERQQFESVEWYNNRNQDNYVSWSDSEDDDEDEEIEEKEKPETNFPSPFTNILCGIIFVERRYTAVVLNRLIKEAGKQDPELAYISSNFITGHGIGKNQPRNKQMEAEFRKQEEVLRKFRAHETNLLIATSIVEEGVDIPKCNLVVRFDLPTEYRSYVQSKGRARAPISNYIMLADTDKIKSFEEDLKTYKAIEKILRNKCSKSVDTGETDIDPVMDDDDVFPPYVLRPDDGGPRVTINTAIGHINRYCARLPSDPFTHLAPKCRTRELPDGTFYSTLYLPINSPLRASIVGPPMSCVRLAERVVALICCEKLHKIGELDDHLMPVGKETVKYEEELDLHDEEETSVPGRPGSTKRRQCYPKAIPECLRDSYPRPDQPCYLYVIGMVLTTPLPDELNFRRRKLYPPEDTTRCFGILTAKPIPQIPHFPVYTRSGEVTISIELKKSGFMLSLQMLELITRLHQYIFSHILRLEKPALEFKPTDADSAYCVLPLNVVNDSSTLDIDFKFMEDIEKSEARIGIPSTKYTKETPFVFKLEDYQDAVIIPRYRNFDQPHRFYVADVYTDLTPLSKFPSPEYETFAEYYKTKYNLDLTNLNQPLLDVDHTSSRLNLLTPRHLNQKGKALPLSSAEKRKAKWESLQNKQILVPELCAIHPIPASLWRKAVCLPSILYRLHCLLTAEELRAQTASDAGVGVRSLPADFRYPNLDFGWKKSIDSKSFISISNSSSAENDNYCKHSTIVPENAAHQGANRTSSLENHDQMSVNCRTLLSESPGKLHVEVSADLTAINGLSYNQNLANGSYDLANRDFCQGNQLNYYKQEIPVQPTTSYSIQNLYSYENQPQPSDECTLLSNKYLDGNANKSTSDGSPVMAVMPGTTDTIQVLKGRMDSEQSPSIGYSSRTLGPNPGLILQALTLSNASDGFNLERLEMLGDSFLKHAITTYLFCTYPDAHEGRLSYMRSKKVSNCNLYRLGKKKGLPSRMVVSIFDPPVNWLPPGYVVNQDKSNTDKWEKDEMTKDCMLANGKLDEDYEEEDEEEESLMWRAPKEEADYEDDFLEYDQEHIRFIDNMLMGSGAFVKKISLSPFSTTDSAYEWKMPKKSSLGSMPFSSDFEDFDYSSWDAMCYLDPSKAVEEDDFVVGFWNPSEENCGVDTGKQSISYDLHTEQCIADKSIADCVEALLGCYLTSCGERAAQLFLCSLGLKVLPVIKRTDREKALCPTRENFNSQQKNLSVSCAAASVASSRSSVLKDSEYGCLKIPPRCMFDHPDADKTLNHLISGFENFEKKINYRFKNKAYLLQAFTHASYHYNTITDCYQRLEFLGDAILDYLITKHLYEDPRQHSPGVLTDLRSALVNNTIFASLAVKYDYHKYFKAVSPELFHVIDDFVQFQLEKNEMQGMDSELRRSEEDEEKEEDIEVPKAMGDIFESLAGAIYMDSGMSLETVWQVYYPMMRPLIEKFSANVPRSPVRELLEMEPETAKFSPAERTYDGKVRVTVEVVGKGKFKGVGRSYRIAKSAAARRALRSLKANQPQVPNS", "test": "proximity ligation"}
{"substance": "Flag-Gag (pCI-Neo-Flag-Gag) (natural protein)", "values": [{"measurement": "PLA proximity events in a cell (highest) (proximity events per cell)", "result": "< 36"}]}
